Assay results published in a protein production outcome set (Wang et al. 2014).

Assay: label from the status in PepcDB records

Row | Sequence | protein production
1 | MSLAVKPGEPLPDFLLLDPKGQPVTPATVSKPAVIVFWASWCTVCKAEFPGLHRVAEETGVPFYVISREPRDTREVVLEYMKTYPRFIPLLASDRDRPHEVAARFKVLGQPWTFVVDREGKVVALFAGRAGREALLDALLLAGADLEGHHHHHH | not failed
2 | MIKLNRDQKLTYKFLIIPIALLILSFNPYTESLEFSLPAVYMASHYAVYFSGLYIGYKYFKGGYISLILGLIPAVLWHSPYFFSLGAAMLDYRILLEITLLFGGVLLGSSINSMRLQIKITLLALWMLGDSILAILFITSTPLYSNLAYPFSPYTPSSLPLAGILMFVIMNVFLIYVISKFMKSIIG | failed
3 | MSSVFPKVAVLLAAYNGMAWIEAQLDSILKQANVCVSVFISVDTSSDGTEAWCADYAQHHVNITLLPPAGQFGGASRNFFRLIQDVDFSSFDYVAFSDQDDIWYQDKLERALSTLMSGNHDAYSSNVVAFWPDGQRILLDKAQPQVQWDHLFEAAGPGCTYVMNRPLADAFKSSLIAQWDVAQNVSLHDWYCYAFARSHGFRWFIDPAPGMDYRQHANNQVGANTGLASLITRLKKIADGWWAGQVLLIGRLTGGSETLFAGKITGTRWMFLRLAFMAGRCRRRPRDKIFFIIACLAAMLNTPEQRNNR | failed
4 | MTVIERFKSNLKGKQNLINFGFILIGLFGCYLLIAWASYSPLDNAWSTASSVTHDTVLNKTGKLGAWLIDLLYAFLGNVAFVVPFVLFSFAIYALIFRIAEQWKWRNLLLQIGSFILLLIGLSGIASVLLPNSAYYLAGGFVGGMLQSLLNGIIGQVGLLLLSTVLMSIGFYFCSGQLLFSLGIQFYQWLFIKKPQSNTILEAANPHLNAQNNETTKSIVANPSENAHVDQLVTHENATEQLTDVSAFTRPTIHGLKSSSTLNTDKTKYNQVNAQPLTDPMMFKIEKKVILPKINMQHPENELTNLSMEQTNSIDNLEIRLPKVHLNTAVTNPEIKTVEHHAQNRPLEMPTQIQPVFDQPITPTISLNVEDQPLDIESNEAQLAEEFAAAEQMRLANMEQRAKAEGLEETFNQIITSPTLTVSINESSEQPTEKDLNPTHHDNGANYPKGYGKTLLHPLLQRNNVVEKPTTPLPTLELLAKNPVQTQQITEQEIFDTSHRLENALANYNVKATVEDVLVGPVVTRYEIKPAAGIKANKVTALANDLARELMFKAIRITEVVPGKPYMGIETPNTHRQTVWLRDVLDSEAFRHTQATLPMALGKDISGQPIVVDMAKMPHLLVAGQTGGGKSVGINTMILSLLFKLTPEQVRFIMIDPKVVELSVYNDIPHLLTPVVTDMKKAANALRWAVGEMERRYLLISHLQVRNIEGYNDKIDQASAMNFPIPDPTWRPADSIGQLPPPLTKLSYIVLIVDEFADLIMSAGKEVEEYIMRIAQKARAVGIHLILATQRPSTDVITGVIKANIPSRIAFTVASQIDSRTILDAGGAEALLGRGDMLYSASGSPEIMRIHGAFMSDEEVQRIADNWRARGKPQYLDSVVASHEDENDSRTNTITELDPLFDEIVAYVIESGVTSISGIQRRFSLGFNRAGRIIDQMEAQAIISEPGKGGKREVLAR | failed
5 | MSDIHKKIKKKQFAPLYLLYGTEAFFINETIKLITTEALEEEDREFNVVTYDLEEAYLEDVVEDARTLPFFGERKVLLIKSPLFLTSQKEKLEQNIKILEEYIGEPSPFSILVFVAPYEKLDERKKITKLLKKTADIVEANAMQVQDVQKWIVARAEEGHVHIDNAAVSLLLELVGSNVTMLAKEMDKLTLYVGMGGEITPKLVAELVPKSVEQNVFALTEKVVKKDIAGAMQILDGLFTQQEEPIKLLALLVSQFRLLHQVKELQQRGYGQNQIASHIGVHPYRVKLAMNQTKFFSFEELKKVIIELAEADYSMKTGKMDKKLVLEFFLMRLNHM | failed
6 | MILKRAYDVTPQKISTDKVRGVRKRVLIGLKDAPNFVMRLFTVEPGGLIDRHSHPWEHEIFVLKGKLTVLKEQGEETVEEGFYIFVEPNEIHGFRNDTDSEVEFLCLIPKEGGE | not failed
7 | MESDSEMVPFPQLPMPIENNYRACTIPYRFPSDDPKKATPNEISWINVFANSIPSFKKRAESDITVPDAPARAEKFAERYAGILEDLKKDPESHGGPPDGILLCRLREQVLRELGFRDIFKKVKDEENAKAISLFPQVVSLSDAIEDDGKRLENLVRGIFAGNIFDLAVKTWFHDHGSLMTWKTSKPNGSISLGRRSLICFALPFNASFRLQCLFSELKYTLNCSSSSSFPFKVVLAANELPSINDITCTELTEILSQLKDENGQLLGVDTSKLLIANSGNDLPVIDLSRVSQELAYLSSDADLVIVEGMGRGIETNLYAQFKCDSLKIGMVKHLEVAEFLGGRLYDCVFKFNEVQS | not failed
8 | AGGTTPAELRAAAADFTWLLNRFATETAGVVDAIAVSSDGLLIAVSELREHADSERLAAIVSGITSLAAGASGNYGLGGLNKVIIDLEGGHVLVSAIGSGAVLGVVTDKEAKLGNIAYEMTLFANRAGAALS | failed
